Earlier results on 3 substances are cited in PMC3012091, “The Concentration of Soluble Extracellular Amyloid-β Protein in Acute Brain Slices from CRND8 Mice” (PLoS ONE, 2010).

For data set [1] the following is noted: APP overexpressing mice. An excerpt:
Constant turn-over of Aβ was included in some model calculations by adjusting the concentrations of Aβ at every location within the tissue after each iterative step of the model. […] E ... || The half-life of Aβ in the model is a more likely source of inaccuracy as the half-lives of Aβ species are less clear from the literature. There are few published half-life measurements from APP overexpressing mice.

The conditions of data set [2]: human CNS. From the text: Constant turn-over of Aβ was included in some model calculations by adjusting the concentrations of Aβ at every location within the tissue after each iterative step of the model.
Data set [3] concerns long-term potentiation (LTP). Particulars: 50–200 pM Aβ applied to acute hippocampal slices. From the text:
At these concentrations Aβ affects long-term potentiation (LTP) when applied to acute hippocampal slices.

The mark [4] stands for this setting: postmortem extraction of Aβ from brain tissue.

Like-named read-outs stand apart in the source and are kept apart here.

As for “Aβ1–40: amyloid-β protein 1–40, literature half-life only”, the half-life in data set [1] (setting [4]) was not above 0.7 h.

On to Amyloid-β protein [Aβ], for which the half-life in data set [1] (in vivo dialysis) was 4 h. For the same substance, the “half-life of Aβ” value in data set [2] was 8 to 9 h. For the same substance, the “effect on LTP” value in data set [3] is “both inhibition and enhancement”.

On to “Aβ1–42: endogenous soluble extracellular amyloid-β protein 1–42 of CRND8 mice, measured by human beta amyloid(1–42) ELISA”, for which the half-life in data set [1] (setting [4]) is not above 1.7 h.
